PMC8795524

Key:
Assay in all cases: EMSA
[1] = target: T1, SAMD9 134-385 (Homo sapiens, UniProt Q5K651 134-385)
T1 sequence: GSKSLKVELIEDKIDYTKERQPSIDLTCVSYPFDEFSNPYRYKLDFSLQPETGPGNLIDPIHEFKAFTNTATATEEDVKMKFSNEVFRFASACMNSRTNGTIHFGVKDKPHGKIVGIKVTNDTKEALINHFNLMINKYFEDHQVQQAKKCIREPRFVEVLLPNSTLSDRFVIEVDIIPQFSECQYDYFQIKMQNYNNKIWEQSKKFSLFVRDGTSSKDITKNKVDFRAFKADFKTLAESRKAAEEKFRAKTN

[2] = target: T2, SAMD9 134-385 K198E (Homo sapiens, UniProt Q5K651 134-385, K198E)
T2 sequence: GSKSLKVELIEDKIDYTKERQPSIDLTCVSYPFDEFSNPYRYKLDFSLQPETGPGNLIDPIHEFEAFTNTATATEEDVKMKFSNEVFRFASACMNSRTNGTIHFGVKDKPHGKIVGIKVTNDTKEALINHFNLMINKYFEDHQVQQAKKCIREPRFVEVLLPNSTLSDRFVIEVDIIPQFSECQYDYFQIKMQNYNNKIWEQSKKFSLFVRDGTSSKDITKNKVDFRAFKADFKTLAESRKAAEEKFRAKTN

[3] = target: T3, SAMD9 134-385 K257E (Homo sapiens, UniProt Q5K651 134-385, K257E)
T3 sequence: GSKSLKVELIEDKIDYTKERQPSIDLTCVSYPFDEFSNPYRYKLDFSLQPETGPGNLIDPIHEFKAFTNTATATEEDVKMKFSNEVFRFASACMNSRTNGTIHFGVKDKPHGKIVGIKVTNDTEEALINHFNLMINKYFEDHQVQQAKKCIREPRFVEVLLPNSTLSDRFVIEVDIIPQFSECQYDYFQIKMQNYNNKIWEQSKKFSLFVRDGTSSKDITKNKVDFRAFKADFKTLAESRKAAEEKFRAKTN

[4] = target: T4, SAMD9 134-385 R221E (Homo sapiens, UniProt Q5K651 134-385, R221E)
T4 sequence: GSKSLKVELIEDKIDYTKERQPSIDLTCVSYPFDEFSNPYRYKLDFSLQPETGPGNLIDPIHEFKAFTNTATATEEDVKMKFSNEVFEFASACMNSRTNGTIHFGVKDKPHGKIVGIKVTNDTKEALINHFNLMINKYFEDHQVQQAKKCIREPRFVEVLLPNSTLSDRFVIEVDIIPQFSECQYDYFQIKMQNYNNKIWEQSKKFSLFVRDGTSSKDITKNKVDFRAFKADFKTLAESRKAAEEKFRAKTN

B1: 11-nt dsDNA (dsDNA)
DNA 1: GAGAAAGAGAG
DNA 2: CTCTCTTTCTC
binding result [1]: no binding

B2: 5' 6-FAM 22-nt dsDNA (dsDNA)
DNA 1: GCAAATTAATGATTTATTCAAG
DNA 2: CTTGAATAAATCATTAATTTGC
binding result [2]: no binding | binding result [3]: binds | binding result [4]: no binding
